Source: patent publication US12692524B2, “Sialyltransferases and their use in producing sialylated oligosaccharides” (Chr. Hansen A/S, priority 2017, dated 2026)

How the values were obtained:
[1] = In vivo screening in E. coli #1363/#1730 with lactose as acceptor, sialyllactose identified by TLC; type: cell-based, Escherichia coli BL21(DE3); settings: 1.5 mM lactose, 72 to 96 hours, qualitative via TLC
Description: Escherichia coli BL21(DE3) #1363 and #1730 harbouring plasmids encoding for 100 sialyltransferases were grown at 30° C. in 100 ml shake flasks filled with 20 ml of mineral salts medium (Samain et al., J. Biotech. 1999, 72:33-47) supplemented with 2% (wt/vol) glucose, ampicillin 100 μg ml^−1, kanamycin 15 μg ml^−1 and zeocin 40 μg ml^−1. When the cultures reached an OD600 of 0.1 to 0.3, gene expression was induced by addition of 0.3 mM IPTG. After an incubation for one hour, 1.5 mM lactose was added to #1363 cultures whereas 1.5 mM lactose as well as 1.5 mM sialic acid was added to #1730 cultures. The incubation continued for 72 to 96 hours. Then, cells were harvested by centrifugation and mechanically disrupted in a defined volume using glass beads. Subsequently, samples were applied to thin layer chromatography (TLC) on Silica Gel 60 F254 (Merck KGaA, Darmstadt, Germany). A mixture of butanol:acetone:acetic acid:H2O (35/35/7/23 (v/v/v/v)) was used as mobile phase. For detection of the separated substances, the TLC plate was soaked with thymol reagent (0.5 g thymol solved in 95 ml ethanol, 5 ml sulfuric acid added) and heated.
In the entire screening, thirty two genes were identified to encode for α-2,3-sialyltransferases, thus producing 3′-SL. 19 enzymes synthesized 6′-SL and were depicted as α-2,6-sialyltransferases. An α-2,3- as well as an α-2,6-sialyltransferase activity could only be observed for 3 enzymes. […] The screening appeared highly accurate since the described activities of extensively characterized sialyltransferases, e. g. […] Regarding the product formation, the experimental setting allowed a semi-quantitative comparison of the screened enzymes. But to achieve deeper knowledge about their kinetic properties, the 3 potentially best performing α-2,3- and α-2,6-sialyltransferases were applied to in vitro assays.

[2] = In vitro sialylation of LNT by protein extracts, LST-a/-b quantified by LC-MS/MS; type: biochemical; settings: 5 mM LNT, 10 mM CMP-Neu5Ac, 16 hours, LC-MS/MS; relative quantity; n.d.: not detectable
Description: Escherichia coli BL21(DE3) harbouring plamids encoding for 100 sialyltransferases were grown at 30° C. in 100 ml shake flasks filled with 20 ml of 2YT medium supplemented with ampicillin 100 μg ml^−1. When the cultures reached an OD600 of 0.1 to 0.3, gene expression was induced by addition of 0.3 mM IPTG and the incubation was continued for 12 to 16 hours. Cells were harvested by centrifugation and mechanically disrupted in a defined volume of 50 mM Tris-HCl pH7.5 using glass beads. The protein extract was kept on ice until the assay started. The in vitro assay was carried out in a total volume of 25 μl including 50 mM Tris-HCl pH7.5, 5 mM MgCl2, 10 mM CMP-Neu5Ac and 5 mM LNT. The assay started with the addition of 3 μl protein extract and continued for 16 hours. Product formation was determined by mass spectrometry.
Mass spectrometry analysis was performed by MRM (multiple reaction monitoring) using a LC Triple-Quadrupole MS detection system. Precursor ions are selected and analyzed in quadrupole 1, fragmentation takes place in the collision cell using argon as CID gas, selection of fragment ions is performed in quadrupole 3. Chromatographic separation of lactose, 3′-Sialyllactose and 6′-Sialyllactose after dilution of culture supernatant 1:100 with H2O (LC/MS Grade), was performed on a XBridge Amide HPLC column (3.5 μm, 2.1×50 mm (Waters, USA) with a XBridge Amide guard cartridge (3.5 μm, 2.1×10 mm) (Waters, USA). Column oven temperature of the HPLC system was 50° C. The mobile phase was composed of acetonitrile:H2O with 10 mM ammonium acetate. A 1 μl sample was injected into the instrument; the run was performed for 3.60 min with a flow rate of 400 μl/min. 3′-Sialyllactose and 6′-Sialyllactose were analyzed by MRM in ESI positive ionization mode. The mass spectrometer was operated at unit resolution. Sialyllactose forms an ion of m/z 656.2 [M+Na]. The precursor ion of Sialyllactose was further fragmented in the collision cell into the fragment ions m/z 612.15, m/z 365.15 and m/z 314.15. Collision energy, Q1 and Q3 Pre Bias were optimized for each analyte individually. Chromatographic separation of lactose, LNT-II, LNT and LST-a or -b after dilution of particle-free biocatalysis-reaction or crude extract, respectively, 1:50 with H2O (LC/MS Grade), was performed on a XBridge Amide HPLC column (3.5 μm, 2.1×50 mm (Waters, USA) with a XBridge Amide guard cartridge (3.5 μm, 2.1×10 mm) (Waters, USA). Column oven was run at 35° C. The mobile phase was composed of acetonitrile:H2O with 0.1% ammonium hydroxide. A 1 μl sample was injected into the instrument; the run was performed for 3.50 min with a flow rate of 300 μl/min. Lactose, LNT-II, LNT as well as LST-a and -b were analyzed by MRM in ESI negative ionization mode. The mass spectrometer was operated at unit resolution. Lactose forms an ion of m/z 341.00 [M−H]. The precursor ion of Lactose was further fragmented in the collision cell into the fragment ions m/z 179.15, m/z 161.15 and m/z 101.05. LNT-II forms an ion of m/z 544.20 [M−H]. The precursor ion of LNT-II was further fragmented into the fragment ions m/z 382.10, m/z 161.00 and m/z 112.90. LNT forms an ion of m/z 706.20 [M−H]. The precursor ion of LNT was further fragmented into the fragment ions m/z 382.10, m/z 202.10 and m/z 142.00. LST-a and -b forms an ion of m/z 997.20 [M−H]. The precursor ion of LST-a and-b was further fragmented into the fragment ions m/z 290.15, m/z 202.15 and m/z 142.15. Collision energy, Q1 and Q3 Pre Bias were optimized for each analyte individually. Quantification methods were established using commercially available standards (Carbosynth, Compton, UK).
Twenty eight genes were identified to produce LST-a whereas only 6 enzymes synthesized LST-b. […] Irrespectively of the protein overexpression level, sialyltransferases that produced best were selected for determination of Km and Vmax.

Row | Molecule | Production of sialyllactose in-vivo [1] | Relative efficacy of sialyltransferases regarding in-vitro production of sialyllacto-N-tetraoses: LST-a [2]
1 | SiaT14: sialyltransferase of Haemophilus-somnus-2336, acc. ACA31578, SEQ ID NO: 26 (protein, listed as Haemophilus somnus) MFREDNMNLIICCTPLQVIIAEKIIERYPEQKFYGVMLESFYNDKFDFYENKLKHLCHEFFCIKIARFKLERYKNLLSLLKIKNKTFDRVFLANIEKRYIHIILSNIFFKELYTFDDGTANIAPNSHLYQEYDHSLKKRITDILLPNHYNSNKVKNISKLHYSIYRCKNNIIDNIEYMPLFNLEKKYTAQDKSISILLGQPIFYDEEKNIRLIKEVIAKFKIDYYFPHPREDYYIDNVSYIKTPLIFEEFYAERSIENSIKIYTFFSSAVLNIVTKENIDRIYALKPKLTEKAYLDCYDILKDFGIKVIDI | 3′-SL | 2
2 | SiaT10: sialyltransferase of Pasteurella multocida PM70, acc. AAK02272, SEQ ID NO: 4 (protein, listed as Pasteurella multocida) MKTITLYLDPASLPALNQLMDFTQNNEDKTHPRIFGLSRFKIPDNIITQYQNIHFVELKDNRPTEALFTILDQYPGNIELDIHLNIAHSVQLIRPILAYRFKHLDRVSIQRLNLYDDGSMEYVDLEKEENKDISAEIKQAEKQLSHYLLTGKIKFDNPTIARYVWQSAFPVKYHFLSTDYFEKAEFLQPLKEYLAENYQKMDWTAYQQLTPEQQAFYLTLVGFNDEVKQSLEVQQAKFIFTGTTTWEGNTDVREYYAQQQLNLLNHFTQAGGDLFIGDHYKIYFKGHPRGGEINDYILNNAKNITNIPANISFEVLMMTGLLPDKVGGVASSLYFSLPKEKISHIIFTSNKQVKSKEDALNNPYVKVMRRLGIIDESQVIFWDSLKQL | 3′-SL, 6′-SL | 3.18 × 10^3
3 | SiaT2: sialyltransferase of Campylobacter jejuni strain OH4384, acc. AF130466, SEQ ID NO: 10 (protein, listed as Campylobacter jejuni) MTRTRMENELIVSKNMQNIIIAGNGPSLKNINYKRLPREYDVFRCNQFYFEDKYYLGKKIKAVFFNPGVFLQQYHTAKQLILKNEYEIKNIFCSTFNLPFIESNDFLHQFYNFFPDAKLGYEVIENLKEFYAYIKYNEIYFNKRITSGVYMCAIAIALGYKTIYLCGIDFYEGDVIYPFEAMSTNIKTIFPGIKDFKPSNCHSKEYDIEALKLLKSIYKVNIYALCDDSILANHFPLSININNNFTLENKHNNSINDILLTDNTPGVSFYKNQLKADNKIMLNFYNILHSKDNLIKFLNKEIAVLKKQTTQRAKARIQNHLSYKLGQALIINSKSVLGFLSLPFIILSIVISHKQEQKAYKFKVKKNPNLALPPLETYPDYNEALKEKECFTYKLGEEFIKAGKNWYGEGYIKFIFKDVPRLKREFEKGE | 3′-SL | 749
4 | SiaT13: sialyltransferase of Streptococcus agalactiae, acc. AB050723, SEQ ID NO: 17 (protein, listed as Streptococcus agalactiae) MTNRKIYVCHTLYHLLICLYKEEIYSNLEIILSSSIPDVDNLEKKLKSKTINIHILEESSGESEELLSVLKDAGLSYSKFDSNCFIFNDATPIGRTLIKHGIYYNLIEDGLNCFTYSIFSQKLWKYYVKKYILHKIQPHGFSRYCLGIEVNSLVNLPKDPRYKKFIEVPRKELFDNVTEYQKEMAINLFGAVRVSIKSPSVLVLTQPLSIDKEFMSYNNKIETSEEQFNFYKSIVNEYINKGYNVYLKVHPRDVVDYSKLPVELLPSNVPMEIIELMLTGRFECGITHSSTALDFLTCVDKKITLVDLKDIK | 3′-SL | 24
